Experiment [1] concerns the target human cytoplasmic dynein (recombinant complex of DHC, DIC, DLIC, Tctex, Robl and LC8) (human) (UniProt Q14204).
In experiment [2] the target is dynactin (bovine (purified from bovine brain)).

Regarding “Drosophila BicD-coiled-coil domain 1 (truncated N-terminal fragment of Dm BicD) (domain or fragment)”, in experiment [1], the processive run length of DDB^CC1 on microtubules, single molecule TIRF worked out at 2.8 µm and the speed of DDB^CC1 on microtubules, single molecule TIRF came to 0.41 µm/s. In experiment [2], this substance yielded a processive run length of DDB^CC1 on microtubules, single molecule TIRF of 2.8 µm and a speed of DDB^CC1 on microtubules, single molecule TIRF of 0.41 µm/s.

Values taken from article doi:10.1101/776187.
